Biological target: the molecule itself
Experiment: crystal structure

B1: MaFRSA (Methanomethylophilus alvus pyrrolysyl-tRNA synthetase, MaPylRS N166A:V168A) (enzyme)
chain: MTVKYTDAQIQRLREYGNGTYEQKVFEDLASRDAAFSKEMSVASTDNEKKIKGMIANPSRHGLTQLMNDIADALVAEGFIEVRTPIFISKDALARMTITEDKPLFKQVFWIDEKRALRPMLAPNLYSVMRDLRDHTDGPVKIFEMGSCFRKESHSGMHLEEFTMLALADMGPRGDATEVLKNYISVVMKAAGLPDYDLVQEESDVYKETIDVEINGQEVCSAAVGPHYLDAAHDVHEPWSGAGFGLERLLTIREKYSTVKKGGASISYLNGAKIN
Q: Does B1 bind?
A: Result: binds
